Laboratory results: the supplement of paper PMC7125110
± gives the standard error. Variants at the floor of the assay were thinned out.

B1: glmS ribozyme (parent)
chain: AUAAAAGCGCCAGAACUACAGAAAUGUAGUUGACGAGGAGGAGGUUUAUCGAAUUUUCGGCGGAUGCCUCCAAA

Variants of: B1
Assay: self-cleavage kobs at 2500 uM GlcN6P; higher = faster cleavage; RNA array
Settings: with glucosamine-6-phosphate
How it was run: (§1)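 In situ transcription by E. coli RNA polymerase produced barcoded ribozyme variants on sequenced MiSeq chips, and a hybridised Cy3 probe tracked them at 37 °C. Glucosamine-6-phosphate was flowed in at 40 μM to 10 mM in HEPES/KCl/Mg(OAc)2 buffer. kcat and KM were taken from weighted Michaelis–Menten fits of kobs values from exponential decay fits.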

Row | Variant | self-cleavage kobs at 2500 uM GlcN6P
1 | AUAAAAGCGCCAGAACUACAGAAAUGUAGUUGACGAGGUGUAGGUUUAUCGAAUUUUCGGCGGAUGCCUCAAAA [A39U G41U C71A] | 4.06e-05 ± 2e-05 s⁻¹
2 | AUAAAAGCGCCAGAACUACAGAAAUGUAGUUGACGAGGUGGAGGUUUAUCCAAUUUUCGGCGGAUGCCUCGAAA [A39U G51C C71G] | < 1e-05 s⁻¹
3 | AUAAAAGCGCCAGAACUACAGAAAUGUAGUUGACGAGGAUGAGGUUUAUCGAAUUUUCGGCGGAUACCUUCAAA [G40U G66A C70U] | 0.0016 ± 0.00053 s⁻¹
4 | AUAAAAGCGCCAGAACUACAGAAAUGUAGUUGACGAGGAGCAUGUUUAUCGAAUUUUCAGCGGAUGCCUCCAAA [G41C G43U G59A] | < 1e-05 s⁻¹
5 | AUAAAAGCGCCAGAACUACAGAAAUGUAGUUGACGAGGCGGAGGUUCAUCGAAUAUUCGGCGGAUGCCUCCAAA [A39C U47C U55A] | 0.000971 ± 0.00023 s⁻¹
6 | AUAAAAGCGCCAGAACUACAGAAAUGUAGUUGACGAGGUGGAGGUUUAUCGAAUUUUCGGCGGAUACCUGCAAA [A39U G66A C70G] | 0.000771 ± 0.00023 s⁻¹
7 | AUAAAAGCGCCAGAACUACAGAAAUGUAGUUGACGAGGCGCAGGUUUAUCGAAUUUUCGGCGGAUUCCUCCAAA [A39C G41C G66U] | < 1e-05 s⁻¹
8 | AUAAAAGCGCCAGAACUACAGAAAUGUAGUUGACGAGGAGGGAGUUUAUCGAAUUUUCGGCUGAUGCCUCCAAA [A42G G43A G62U] | < 1e-05 s⁻¹
9 | AUAAAAGCGCCAGAACUACAGAAAUGUAGUUGACGAGGAGAAGGUUUAUCGAAUUUUCGGCGGAUGCCUACAAA [G41A C70A] | 0.000253 ± 5.4e-05 s⁻¹
10 | AUAAAAGCGCCAGAACUACAGAAAUGUAGUUGACGAGGACUAGGUUUAUCGAAUUUUCGGCGGAUGCCUCAAAA [G40C G41U C71A] | 4.86e-05 ± 1.8e-05 s⁻¹
11 | AUAAAAGCGCCAGAACUACAGAAAUGUAGUUGACGAGGAGGCGGUUUUUCGAAUUUUCGGCGGAUCCCUCCAAA [A42C A48U G66C] | < 1e-05 s⁻¹
12 | AUAAAAGCGCCAGAACUACAGAAAUGUAGUUGACGAGGAAGAGGUUCAUCGAAUUUUUGGCGGAUGCCUCCAAA [G40A U47C C58U] | < 1e-05 s⁻¹
13 | AUAAAAGCGCCAGAACUACAGAAAUGUAGUUGACGAGGACGAGGUUAAUCGAAUUUUCGGCCGAUGCCUCCAAA [G40C U47A G62C] | < 1e-05 s⁻¹
14 | AUAAAAGCGCCAGAACUACAGAAAUGUAGUUGACGAGGACGAGGUUUAUCGGAUGUUCGGCGGAUGCCUCCAAA [G40C A52G U55G] | 4.2e-05 ± 1.1e-05 s⁻¹
15 | AUAAAAGCGCCAGAACUACAGAAAUGUAGUUGACGAGGAGUAGCUUUAUCGAAUGUUCUGCGGAUGCCUCCAAA [G41U G44C U55G G59U] | < 1e-05 s⁻¹
16 | AUAAAAGCGCCAGAACUACAGAAAUGUAGUUGACGAGGCGGAGGUUAAUCGAAUUUUCGGCGGAUCCCUCCAAA [A39C U47A G66C] | 0.000411 ± 8.5e-05 s⁻¹

Row | Variant | self-cleavage kobs at 2500 uM GlcN6P
17 | AUAAAAGCGCCAGAACUACAGAAAUGUAGUUGACGAGGAAGAGGUUUAUCGAAUUUUCGGCGGACGCCUCCAAA [G40A U65C] | 0.000394 ± 0.00015 s⁻¹
18 | AUAAAAGCGCCAGAACUACAGAAAUGUAGUUGACGAGGCGGAGGUUUAUCGAUUUUUCGGCGGGUGCCUCCAAA [A39C A53U A64G] | 0.00188 ± 0.00024 s⁻¹
19 | AUAAAAGCGCCAGAACUACAGAAAUGUAGUUGACGAGGGGUAGGUUUAUCGAAUUUUCGGCGGAUGCCACCAAA [A39G G41U U69A] | 5.05e-05 ± 2.2e-05 s⁻¹
20 | AUAAAAGCGCCAGAACUACAGAAAUGUAGUUGACGAGGAUGAGGUUUAUCGAGUUUUCGGCGGACGCCUCCAAA [G40U A53G U65C] | 4.92e-05 ± 1.4e-05 s⁻¹
21 | AUAAAAGCGCCAGAACUACAGAAAUGUAGUUGACGAGGUGCAGGUUUAUCGUAUUUUCGGCGGAUGCCUCCAAA [A39U G41C A52U] | < 1e-05 s⁻¹
22 | AUAAAAGCGCCAGAACUACAGAAAUGUAGUUGACGAGGAGGGGGUUUAUCGGAUUUUCGGCGGAUGACUCCAAA [A42G A52G C67A] | 0.000326 ± 8.1e-05 s⁻¹
23 | AUAAAAGCGCCAGAACUACAGAAAUGUAGUUGACGAGGGGGACGUUUAUCGCAUUUUCGGCGGAUGCCUCCAAA [A39G G43C A52C] | < 1e-05 s⁻¹
24 | AUAAAAGCGCCAGAACUACAGAAAUGUAGUUGACGAGGAAGAGGUUCAUCGAACUUUCGGCGGAUGCCUCCAAA [G40A U47C U54C] | 0.00058 ± 0.00013 s⁻¹
25 | AUAAAAGCGCCAGAACUACAGAAAUGUAGUUGACGAGGUGGAGGUGUAUCGAAUUUUCGGCGGAUGCCUACAAA [A39U U46G C70A] | 0.000101 ± 2.8e-05 s⁻¹
26 | AUAAAAGCGCCAGAACUACAGAAAUGUAGUUGACGAGGUGGUGGUUAAUCGAAUUUUCGGCGGAUGCCUCCAAA [A39U A42U U47A] | 0.0025 ± 0.0012 s⁻¹
27 | AUAAAAGCGCCAGAACUACAGAAAUGUAGUUGACGAGGAGUAGGUUUAUCGAUUUUUCGUAGGAUUCCUCCAAA [G41U A53U G60U C61A G66U] | < 1e-05 s⁻¹
28 | AUAAAAGCGCCAGAACUACAGAAAUGUAGUUGACGAGGAGAAGGUUUAUCGAAUUUUCGGAAGAUGCCUCCAAA [G41A C61A G62A] | < 1e-05 s⁻¹
29 | AUAAAAGCGCCAGAACUACAGAAAUGUAGUUGACGAGGAGUAGGUUUAUCGAAUUUUAGGCGGGUGCCACCAAA [G41U C58A A64G U69A] | < 1e-05 s⁻¹
30 | AUAAAAGCGCCAGAACUACAGAAAUGUAGUUGACGAGGAUGAGAUUUAUCGAAUCUUCGGCGGAUGUCUCCAAA [G40U G44A U55C C67U] | < 1e-05 s⁻¹
31 | AUAAAAGCGCCAGAACUACAGAAAUGUAGUUGACGAGGAGGGGGUUUAUGGAAUUUUCGGCGUAUGCCUCCAAA [A42G C50G G63U] | < 1e-05 s⁻¹

Variants of: B1
Assay: self-cleavage kobs at 10000 uM GlcN6P; higher = faster cleavage; RNA array
Settings: with glucosamine-6-phosphate
How it was run: as §1

Row | Variant | self-cleavage kobs at 10000 uM GlcN6P
32 | AUAAAAGCGCCAGAACUACAGAAAUGUAGUUGACGAGGAGAAGGUUUAUCGAAUUUUCGGCGGAUGCCUACAAA [G41A C70A] | 0.00019 ± 2.6e-05 s⁻¹
33 | AUAAAAGCGCCAGAACUACAGAAAUGUAGUUGACGAGGACUAGGUUUAUCGAAUUUUCGGCGGAUGCCUCAAAA [G40C G41U C71A] | 0.000104 ± 1.6e-05 s⁻¹
34 | AUAAAAGCGCCAGAACUACAGAAAUGUAGUUGACGAGGAGGCGGUUUUUCGAAUUUUCGGCGGAUCCCUCCAAA [A42C A48U G66C] | < 1e-05 s⁻¹
35 | AUAAAAGCGCCAGAACUACAGAAAUGUAGUUGACGAGGAAGAGGUUUAUCGAAUUUUCGGCGGACGCCUCCAAA [G40A U65C] | 0.000296 ± 6.1e-05 s⁻¹
36 | AUAAAAGCGCCAGAACUACAGAAAUGUAGUUGACGAGGUGGAGGUGUAUCGAAUUUUCGGCGGAUGCCUACAAA [A39U U46G C70A] | 0.000162 ± 3.2e-05 s⁻¹
37 | AUAAAAGCGCCAGAACUACAGAAAUGUAGUUGACGAGGUGGUGGUUAAUCGAAUUUUCGGCGGAUGCCUCCAAA [A39U A42U U47A] | 0.00362 ± 0.0011 s⁻¹
